Test [1] deals with T1, GST-fused Par-3 PDZ2 with its associated basic region (BR-PDZ2) (UniProt O96782 1-1464).
T1 chain: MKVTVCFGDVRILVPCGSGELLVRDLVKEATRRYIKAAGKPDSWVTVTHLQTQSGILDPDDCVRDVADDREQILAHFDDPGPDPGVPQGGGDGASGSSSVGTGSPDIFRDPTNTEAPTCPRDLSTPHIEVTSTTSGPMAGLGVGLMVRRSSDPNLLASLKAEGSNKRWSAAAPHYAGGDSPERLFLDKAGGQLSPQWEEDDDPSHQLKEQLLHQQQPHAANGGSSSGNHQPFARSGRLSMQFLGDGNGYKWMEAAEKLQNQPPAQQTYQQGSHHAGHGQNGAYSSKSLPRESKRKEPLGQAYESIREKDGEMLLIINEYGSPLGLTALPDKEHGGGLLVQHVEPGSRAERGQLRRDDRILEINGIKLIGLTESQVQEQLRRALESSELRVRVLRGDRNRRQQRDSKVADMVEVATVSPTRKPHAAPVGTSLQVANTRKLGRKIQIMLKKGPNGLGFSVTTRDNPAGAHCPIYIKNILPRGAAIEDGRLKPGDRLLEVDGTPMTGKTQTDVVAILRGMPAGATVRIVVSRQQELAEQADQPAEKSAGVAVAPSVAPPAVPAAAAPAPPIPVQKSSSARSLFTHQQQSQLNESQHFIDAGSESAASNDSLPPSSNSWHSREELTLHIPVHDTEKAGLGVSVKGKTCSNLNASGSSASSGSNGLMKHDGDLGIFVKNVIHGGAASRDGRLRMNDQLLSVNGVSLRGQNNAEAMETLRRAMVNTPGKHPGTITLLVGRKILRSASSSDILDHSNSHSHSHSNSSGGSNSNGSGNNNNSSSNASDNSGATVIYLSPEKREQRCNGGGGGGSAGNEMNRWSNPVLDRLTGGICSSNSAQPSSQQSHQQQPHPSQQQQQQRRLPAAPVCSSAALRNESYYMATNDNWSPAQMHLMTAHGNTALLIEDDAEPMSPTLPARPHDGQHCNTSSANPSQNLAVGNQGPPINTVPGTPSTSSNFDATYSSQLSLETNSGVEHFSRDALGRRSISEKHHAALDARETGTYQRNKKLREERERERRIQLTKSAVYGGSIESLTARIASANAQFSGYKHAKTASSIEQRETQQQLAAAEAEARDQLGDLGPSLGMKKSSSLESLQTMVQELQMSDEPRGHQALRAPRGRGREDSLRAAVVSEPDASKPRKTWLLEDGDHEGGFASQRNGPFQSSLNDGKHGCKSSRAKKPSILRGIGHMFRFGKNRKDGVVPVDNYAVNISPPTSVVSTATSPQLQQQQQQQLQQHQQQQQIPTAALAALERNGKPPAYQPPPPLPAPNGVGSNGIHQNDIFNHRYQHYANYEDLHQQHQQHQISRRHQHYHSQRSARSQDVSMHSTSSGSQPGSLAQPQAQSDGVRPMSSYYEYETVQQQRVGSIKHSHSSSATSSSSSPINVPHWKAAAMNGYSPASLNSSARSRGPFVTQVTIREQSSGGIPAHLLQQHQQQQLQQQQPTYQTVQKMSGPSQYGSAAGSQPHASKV

Another test addresses T2, GST-fused Par-6 CRIB-PDZ (UniProt O97111 130-255).
T2 construct: Par-6, CRIB motif and PDZ domain; also called GST Par-6 CRIB-PDZ
T2 sequence (looked up): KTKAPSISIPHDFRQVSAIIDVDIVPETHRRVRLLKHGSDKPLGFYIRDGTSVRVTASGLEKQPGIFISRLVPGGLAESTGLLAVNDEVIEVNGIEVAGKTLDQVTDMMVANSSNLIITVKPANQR
Description: pull-down; GST-Par-6 CRIB-PDZ on glutathione resin, Par complex ΔCRIB-PDZ with soluble Par-3 BR-PDZ2 added; same buffer, 60 min at RT; Coomassie, normalized band intensity of aPKC. The following applies: both partners purified.

In test [2] the target is T1, GST-fused Par-3 PDZ2 with its …. Kind of test: with Par-6 CRIB-PDZ added in trans.

Like-named read-outs stand apart in the source and are kept apart here. A value given as a limit tells only on which side of the number the result lay.

B1: Par complex ΔCRIB-PDZ (full-length aPKC plus the Par-6 PB1 domain) (complex)
chain 1: MQKMPSQILNDGSSVSLNSASMNMANTPNSITVKTAYNGQIIITTINKNISYEELCYEIRNICRFPLDQPFTIKWVDEENDPCTISTKMELDEAIRLYEMNFDSQLVIHVFPNVPQAPGLSCDGEDRSIYRRGARRWRKLYRVNGHIFQAKRFNRRAFCAYCQDRIWGLGRQGFKCIQCKLLVHKKCHKLVQKHCTDQPEPLVKERAEESSDPIPVPLPPLPYEAMSGGAEACETHDHAHIVAPPPPEDPLEPGTQRQYSLNDFELIRVIGRGSYAKVLMVELRRTRRIYAMKVIKKALVTDDEDIDWVQTEKHVFETASNHPFLVGLHSCFQTPSRLFFVIEFVRGGDLMYHMQRQRRLPEEHARFYAAEISLALNFLHEKGIIYRDLKLDNVLLDHEGHIKLTDYGMCKEGIRPGDTTSTFCGTPNYIAPEILRGEDYGFSVDWWALGVLLYEMLAGRSPFDLAGASENPDQNTEDYLFQVILEKTIRIPRSLSVRAASVLKGFLNKNPADRLGCHRESAFMDIVSHPFFKNMDWELLERKQVTPPFKPRLDSDRDLANFPPEFTGEAVQLTPDDDHVIDNIDQSEFEGFEYVNPLLMSLEDCV
chain 2: MSKNKINTTSATAASDTNLIEVKSKFDAEFRRWSFKRNEAEQSFDKFASLIEQLHKLTNIQFLILYIDPRDNDLLPINNDDNFGRALKTARPLLRVIVQRKDDLNEYSGFGTMKPRNLIGSILMGHTPV
notes: atypical PKC (aPKC), full length; Par-6, PB1 domain; The complex was His-purified; also called full-length aPKC with Par-6 PB1; source: HEK 293F, co-transfected, purified (cobalt resin, anion exchange)
Usually Kd stands for a measure of binding affinity in units of concentration. Higher therefore signals lower affinity. For the molecule B1, the equilibrium dissociation constant (Kd) in test [1] amounted to 161 µM; in test [2] it was 11.3 µM. The “fold increase of binding with Par-3 PDZ2 against without Par-3” value with GST-fused Par-6 CRIB-PDZ is over 20 fold.

(Values after PMC11774777, “A PDZ-kinase allosteric relay mediates Par complex regulator exchange” (The Journal of Biological Chemistry, 2024).)
